This data set can be described thus: yeast display, Sf9 membrane polyspecificity reagent, FACS + sequencing; frameworks hold sequencing errors. In outline:
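Using colony PCR, genes from sorted yeast display clones were amplified, then sequenced on MiSeq at 2 × 250 and filtered by CDR length. The clones had been stained with 10% biotinylated, detergent-solubilized Sf9 membrane reagent for 1 hour at 4 °C and sorted by FACS into low and high (top ~1%) gates on anti-HA and streptavidin fluorescence. Polyreactivity labels come from the gate of origin.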
As to “QVQLVESGGGLVQAGGSLRLSCAASGIIFNRYAMGRYRQAPGKERELVASITSSGGSTHYADSVKGRFTISRDNAKNTVYLQMNSLKPEDTAVYYCAKQFPNNYRYYLHYYYWGQGTQVTVSS”, the “polyreactivity (PSR sort gate)” value is recorded as “low polyreactivity”.

For the sequence “QVQLVESGGGLVQAGGSLRLSCAASGIIFNTYAMGWYRPAPGKERELVAGIDYSGGGTSYADSVKGRFTISRDNAKNTVYLQMNSLKPEDTAVYYCAADAYSGAYFTYLGEIYDYWGQGTQVTVSS”, the “polyreactivity (PSR sort gate)” value is on record as “low polyreactivity”.

As for “QVQLVESGGGLVQAGGSLRLSCAASGIIFNYNAMGWYRQAPGKERELVASISSSGGNTYYADSVKGRFTISRDNAKNTVYLQMNSLKPEDTAVYYCAARYVGWRLKRWYEYWGQGTQVTVSS”, the “polyreactivity (PSR sort gate)” value is on record as “high polyreactivity”.

Turning to “QVQLVESGGGLVQAGGSLRLSCAASGIIFPGNAMGWYRQAPGKERELVAAISSGGNTKYADSVKGRFTISRDNAKNTGYLQMNSLKPEDTAVYYCAADGASRALYDYWGQGTQVTVSS”, the “polyreactivity (PSR sort gate)” value is “high polyreactivity”.

As to “QVQLVESGGGLVQAGGSLRLSCAASGIIFPIYAMGWYRQAPGPERELVAAIDINGGRTYYADSVKGRFTISRDNAKNTVYLPMNSLKPEDTAVYYCNAEGGSYARLYGNYEYWGQGTQVTVSS”, the “polyreactivity (PSR sort gate)” value is listed as “low polyreactivity”.

For “QVQLVESGGGLVQAGGSLRLSCAASGIIFPRYAMGWYIQAPGKERELVAAITKRGGSTYYADSVKGRFTISRDNANNTVYLQMNSLKPEDTAVYYCARVWSRRYGGWYRNYDYWGQGTKVTVSS”, the “polyreactivity (PSR sort gate)” value is reported as “high polyreactivity”.

In the case of “QVQLVESGGGLVQAGGSLRLSCAASGIIFPRYAMGWYRQAPGKERELVAAITKRGGSTYYADSVKGRFTISRDNAKNTVYLQMNSLKPEDTAVYYCAADDNSGYYYWGQGTQVTVSS”, the “polyreactivity (PSR sort gate)” value is “high polyreactivity”.

Take “QVQLVESGGGLVQAGGSLRLSCAASGIIFPRYTMGSYRQAPGKERELVAAISWRGGRTYYADSVKGRFTISRDNAKNTVYLQMNSLKPEDTAVYYCAAEFVHSYSYAYDYWGQGTQVTVSS”: the “polyreactivity (PSR sort gate)” value is recorded as “high polyreactivity”.

As to “QVQLVESGGGLVQAGGSLRLSCAASGIIFPSYAMGWYRQAPGKERELVADISNDDSTNYADSVKGRFTISRDNAKNTVYLQMNSLKPEDTAVYYCNAEEWGFWWRYDYWGQGTQVTVSS”, the “polyreactivity (PSR sort gate)” value is “high polyreactivity”.

As to “QVQLVESGGGLVQAGGSLRLSCAASGIIFPSYVMGWYRPAPGKERELVARISARGGRTYYADSVKGRFTISRDNAKNTVYLQMNSLKPEDTAVYYCAARWGITTWYDYWGQGTQVTVSS”, the “polyreactivity (PSR sort gate)” value was “high polyreactivity”.

For the sequence “QVQLVESGGGLVQAGGSLRLSCAASGIIFPTYAMGWYRQAPGKERELVAAISVSGGTTSYADSVKGRFTISRDNAKNTVYLQMNSLKPEDTAVYYCAARKYSYPVAAHYYWGQGTQVTVSS”, the “polyreactivity (PSR sort gate)” value is on record as “high polyreactivity”.

For the sequence “QVQLVESGGGLVQAGGSLRLSCAASGIIFPYYAMGWYRQATGKERELVAAITRGGITYYADSVKGRFTISRDNAKNTVYLQMNSLKPEDTAVYYCAARLRGSYDYWGQGTQVTVSS”, the “polyreactivity (PSR sort gate)” value is recorded as “high polyreactivity”.

On to “QVQLVESGGGLVQAGGSLRLSCAASGIIFPYYTMGWYRQAPGKERELVARITNGGRTYYADSVNGRFTISRDNAKNTVYLQMNSLKPEDTAVYYCNAGRYYIGGYWGQGTQVTVSS”, for which the “polyreactivity (PSR sort gate)” value is listed as “high polyreactivity”.

“QVQLVESGGGLVQAGGSLRLSCAASGIIFQAYAMGWYRQAPGKERELVAAISYSGGSTYYADSVKGRFTISRDNAKNTVYLQMNCLKPEDTAVYYCAATFYGYFDSVFSWGYYYWGQGTQVTVSS”: the “polyreactivity (PSR sort gate)” value is recorded as “low polyreactivity”.

As to “QVQLVESGGGLVQAGGSLRLSCAASGIIFQFYAMGWYRQAPGKEREFVAAISARSGRTYYADSVKGRFTISRDNAKNTVYLQMNSLKPEDTAVYYCNTAYAYSGRYDYWGQGTQVTVSS”, the “polyreactivity (PSR sort gate)” value is “high polyreactivity”.

With “QVQLVESGGGLVQAGGSLRLSCAASGIIFQRNDMGWYRQAPGKERELVANIRDGGITYADSVKGRFTISRDNAKNTVYLQMNSLKPEDTAVYYCARDDTSPGYGDQSSNAAYYYWGQGTQVTVSS”, the “polyreactivity (PSR sort gate)” value is “low polyreactivity”.

Take “QVQLVESGGGLVQAGGSLRLSCAASGIIFQSYTMGWYRQAPGKVRELVAAIDSGGSTYYADSVKGRFTISRDNAKNTVYLQMNSLKPEDTAVYYCAAEPDTYWYTYDYWGQGTQVTVSS”: the “polyreactivity (PSR sort gate)” value is given as “low polyreactivity”.

“QVQLVESGGGLVQAGGSLRLSCAASGIIFRAYAMGWYRPAPGKETEFVADISYSGGRTYYADSVKGRFTISRDNAKNTVYLPLNSLKPEDTAVYYCGARKLYGSPEHGYWGQGTQVTVSS”: the “polyreactivity (PSR sort gate)” value is reported as “high polyreactivity”.

For the sequence “QVQLVESGGGLVQAGGSLRLSCAASGIIFRFYAMGWYRQAPGKERELVAAITSSGGSTYYADSVKGRFTISRDNAKNTVYLQMNSLKPEDTAVYYCATSTGPYRGRFYYWGQGTQVTVSS”, the “polyreactivity (PSR sort gate)” value is recorded as “high polyreactivity”.

For the sequence “QVQLVESGGGLVQAGGSLRLSCAASGIIFRGNAMGWYRQAPGKERELVAAISKSGGRTYYADSVKGRFTISRDNAKNTVYLQMNSLKPEDTAVYYCAASYYAVGGYDYWGQGTQVTVSS”, the “polyreactivity (PSR sort gate)” value is reported as “high polyreactivity”.

With “QVQLVESGGGLVQAGGSLRLSCAASGIIFRGYAMGWDRQAPGQERELVAVIDRSGARTNYADSVTGRFTISRDNAKNTVYLQMNSLKPEDTAVYYCAASGVRAYSGLGYWGQGSQVTVSS”, the “polyreactivity (PSR sort gate)” value is listed as “high polyreactivity”.

For the sequence “QVQLVESGGGLVQAGGSLRLSCAASGIIFRGYAMGWYRLAPGKERELVAAINQDSGNTYYADSVKGRFTISRDNAKKTVYLQMNSLKPEDTAVYYCAASSRLNRWNYYAFDYWGQGTQVTVSS”, the “polyreactivity (PSR sort gate)” value was “high polyreactivity”.

“QVQLVESGGGLVQAGGSLRLSCAASGIIFRGYVMGWYRQAPGKERELVAAISTSGGRTSYADSVKGRFTISRDNAKNTVYLQMNSLKPEDTAVYYCAADSGYRYYTKSVGYDYWGQGTQVTVSS”: the “polyreactivity (PSR sort gate)” value is recorded as “high polyreactivity”.

In the case of “QVQLVESGGGLVQAGGSLRLSCAASGIIFRGYVMGWYRQAPGKERELVADISRGGSTYYADSVKGRFTISRDNAKNTVYLQMNSLKPEDTAVYYCATAGPLWFYWGYDYWGQGTQVTVSS”, the “polyreactivity (PSR sort gate)” value was “low polyreactivity”.

For the sequence “QVQLVESGGGLVQAGGSLRLSCAASGIIFRLYGMGWYRPAPGKAREFVATITWRGGRTNYADSVKGRFTISRDNAKNTVYLLMNSRKPEDTADYYCAKDVRYARSNEYDSWGQGTQVTVSS”, the “polyreactivity (PSR sort gate)” value is given as “low polyreactivity”.

For “QVQLVESGGGLVQAGGSLRLSCAASGIIFRNYAMGWYRQAPGKERELVATIRYRGGRTYADSVKGRFTISRDNAKNTVYLQMNSLKPEDTAVYYCNARRLSVYGDYDYWGQGTQVTVSS”, the “polyreactivity (PSR sort gate)” value is reported as “high polyreactivity”.

As to “QVQLVESGGGLVQAGGSLRLSCAASGIIFRPYAMGWYRQAPGKERELVAAITGSGVSTYYADSVKGRFTISRDNAKNTVYLQMNCQKPEDTAVYYCAKRYNRGYHRYDYWGQGTQVTVSS”, the “polyreactivity (PSR sort gate)” value was “low polyreactivity”.

On to “QVQLVESGGGLVQAGGSLRLSCAASGIIFRPYAMGWYRQAPGKERELVASITLSGGSTYYADSVKGRFTISRDNAKNTVYLQMNSLKPEDTAVYYCNRYPRLRVVPSRYVKYDYWGQGTQVTVSS”, for which the “polyreactivity (PSR sort gate)” value is reported as “low polyreactivity”.

“QVQLVESGGGLVQAGGSLRLSCAASGIIFRRYAMGWYRQAPGKERELVAAITGRGGSTYYADSVKGRFTISRDNAKNTVYLQMNSLKPEDTAVYYCAADVYTGDYDSWGQGTQVTVSS”: the “polyreactivity (PSR sort gate)” value is on record as “high polyreactivity”.

“QVQLVESGGGLVQAGGSLRLSCAASGIIFRSYAMGWYRQAPGKERELVAAITSGGSTNYADSVKGRFTISRDNAKNTVYLQMHSLKPEDTAVYYCAARWPWYGKLRYYYWGQGTQVTVSS”: the “polyreactivity (PSR sort gate)” value is “high polyreactivity”.

For “QVQLVESGGGLVQAGGSLRLSCAASGIIFRYNALGWYRQAPGKERELVSPISVSGGSTYYADSVKGRFTISRDNAKNTVYLQMNSLQPEDTAVYYCAALLYRYGVHQAEHDYWGQGTQVTVSS”, the “polyreactivity (PSR sort gate)” value is on record as “high polyreactivity”.

For the sequence “QVQLVESGGGLVQAGGSLRLSCAASGIIFRYYAMGWYRQAPGKERELVAAITVNGGRTYYADSVKGRFTISRDNAKNTVYLQMNSLKPEDTAVYYCAAYPHRYRVTPYPSVVSLDNYWGQGTQVTVSS”, the “polyreactivity (PSR sort gate)” value is “low polyreactivity”.

For the sequence “QVQLVESGGGLVQAGGSLRLSCAASGIIFRYYAMGWYRQAPGKEREWVAAISSSGVSTYYADSVKGRFTISRDNAKNNVYLQMNSLKPEDTAVYYCAAVTTWRMDYWGQGTQVTVSS”, the “polyreactivity (PSR sort gate)” value is reported as “high polyreactivity”.

Take “QVQLVESGGGLVQAGGSLRLSCAASGIIFSDYAMGWYRQAPGKERELVAAISSNAGTTSYADSVKGRFTISRDNAKNTVYLQMNSLKPEDTAVYYCNADSSYPPGYDYCGQGTQVTVSS”: the “polyreactivity (PSR sort gate)” value was “low polyreactivity”.

“QVQLVESGGGLVQAGGSLRLSCAASGIIFSDYDMGWYRQAPGKERELVAAISWSGGSTYYADSVKGRFTISRDNAKNTVYLQMNSLKPEDTAVYYCAVDSQRQVTSRDDYWGQGTQVTVSS”: the “polyreactivity (PSR sort gate)” value is “low polyreactivity”.

On to “QVQLVESGGGLVQAGGSLRLSCAASGIIFSGNAMGWSRQAPGKERELVAAITLSGGSTYYADSVKGRFTISRDNAKNTVYLQMNSLKPEDTAVYYCNAVYDTKYSLRDIDTEYGSWGQGTQVTVSS”, for which the “polyreactivity (PSR sort gate)” value is on record as “low polyreactivity”.

Regarding “QVQLVESGGGLVQAGGSLRLSCAASGIIFSGNAMGWYRQAPGKERELVAAITLSGGSTYYADSVKGRFTISRDNAKNTVYLQMNSLKPEDTAVYYCNAVYDTNYSLRDIDTEYGSWGQGTQVTVSS”, the “polyreactivity (PSR sort gate)” value is “low polyreactivity”.

Regarding “QVQLVESGGGLVQAGGSLRLSCAASGIIFSGYVMGWYRQAPGKERELVAAISSGGSTYYADSVKGRFTISRDNAKNTVYLQMNSLKPEDTAVYYCAAAGYWTLGYGYWGQGTQVTVSS”, the “polyreactivity (PSR sort gate)” value is recorded as “low polyreactivity”.

Take “QVQLVESGGGLVQAGGSLRLSCAASGIIFSTYAMGWYRQAPGKDRELVAAITSTGSTNYADSEKGRFTISRDNAKTTVSLQMNSLKPEDTAVYFCAARYAGPSPTDTGHDYWGQGTQVTVSS”: the “polyreactivity (PSR sort gate)” value is given as “low polyreactivity”.

As to “QVQLVESGGGLVQAGGSLRLSCAASGIIFSTYAMGWYRQAPGKERELDATITSSGSNTYYADSVKGRFTISRDNAKNTVYLQMNSLKPEDTAVYYCNAVASHYDFGYWGQGTQVTVSS”, the “polyreactivity (PSR sort gate)” value is reported as “high polyreactivity”.
